Source: article PMC8399232, “Soy Isoflavones Inhibit Both GPIb-IX Signaling and αIIbβ3 Outside-In Signaling via 14-3-3ζ in Platelet” (Molecules, 2021)

Target: T1, integrin β3 (endogenous, platelets) (mouse (endogenous in platelets), UniProt O54890 26-787)
T1 construct: integrin β3 endogenous in platelets, precipitated with an anti-integrin β3 antibody; platelets were prepared from mice; In platelets β3 stands in the integrin αIIbβ3; also called platelet integrin β3; β3 integrin; source: endogenous, platelet lysate (NP-40 lysis buffer)
T1 sequence (looked up): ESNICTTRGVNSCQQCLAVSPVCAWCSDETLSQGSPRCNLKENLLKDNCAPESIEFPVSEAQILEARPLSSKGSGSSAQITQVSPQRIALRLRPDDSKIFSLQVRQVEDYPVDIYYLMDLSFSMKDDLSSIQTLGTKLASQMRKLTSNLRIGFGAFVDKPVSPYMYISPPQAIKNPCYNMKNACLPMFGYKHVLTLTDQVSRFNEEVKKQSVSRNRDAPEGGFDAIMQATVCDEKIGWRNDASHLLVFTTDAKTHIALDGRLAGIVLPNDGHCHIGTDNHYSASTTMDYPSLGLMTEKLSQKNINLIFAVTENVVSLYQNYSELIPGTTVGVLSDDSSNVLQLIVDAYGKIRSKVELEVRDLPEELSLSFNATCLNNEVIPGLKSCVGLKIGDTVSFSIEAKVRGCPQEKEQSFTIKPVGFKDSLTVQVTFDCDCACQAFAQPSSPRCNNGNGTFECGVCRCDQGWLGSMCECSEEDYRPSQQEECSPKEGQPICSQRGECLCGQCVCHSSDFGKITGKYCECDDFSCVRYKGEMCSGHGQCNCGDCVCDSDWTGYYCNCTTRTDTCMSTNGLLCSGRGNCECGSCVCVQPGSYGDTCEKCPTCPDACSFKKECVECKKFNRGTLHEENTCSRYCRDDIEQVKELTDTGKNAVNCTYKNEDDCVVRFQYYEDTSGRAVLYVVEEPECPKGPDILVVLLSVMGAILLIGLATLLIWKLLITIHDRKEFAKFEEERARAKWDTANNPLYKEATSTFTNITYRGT
Assay: co-IP; platelets pretreated with 0.1 % DMSO, 100 μM isoflavones or 3 μM SQ29548, stimulated with 0.04 U/mL thrombin, lysed in NP-40 lysis buffer; precipitated with integrin β3 antibody and protein A magnetic beads overnight at 4 °C; western blot
Conditions: partners not purified

B1: 14-3-3ζ (endogenous, platelets) (natural protein, mouse (endogenous in platelets), UniProt P63101 1-245, looked up)
chain: MDKNELVQKAKLAEQAERYDDMAACMKSVTEQGAELSNEERNLLSVAYKNVVGARRSSWRVVSSIEQKTEGAEKKQQMAREYREKIETELRDICNDVLSLLEKFLIPNASQPESKVFYLKMKGDYYRYLAEVAAGDDKKGIVDQSQQAYQEAFEISKKEMQPTHPIRLGLALNFSVFYYEILNSPEKACSLAKTAFDEAIAELDTLSEESYKDSTLIMQLLRDNLTLWTSDTQGDEAEAGEGGEN
notes: 14-3-3ζ endogenous in platelets; platelets were prepared from mice; The methods tell of platelets prepared from wild type and GPIbα deficient mice only; the species is not repeated for the co-immunoprecipitation; source: endogenous, platelet lysate (NP-40 lysis buffer)
fold increase of co-precipitated 14-3-3ζ on platelet activation against resting platelets: 2.7 fold
